Molecular target: T1, Recombinant human PD-1 (Sino Biological Inc., Catalog Number 10377-H08H) (human, UniProt Q15116 25-167)
T1 construct: Bought protein; also called antigen PD-1
Experiment: ELISA, human PD-1 coated
Protocol: Recombinant human PD-1 (purchased from Sino Biological Inc.) was coated on a 96-well high-absorbing ELISA plate with a carbonate buffer solution with pH 9.6, the coating concentration was 1 μg/mL, the coating amount was 100 μL per well, and the coating was carried out at 4° C. overnight. The plate was washed five times with PBST and blocked with 300 μL/well of PBST containing 1% BSA, and then incubated at 25° C. for 1 hour. The plate was washed five times with PBST. […] The plate was washed five times with PBST. Then, horseradish peroxidase-labeled anti-human IgG antibody (Chemicon, Catalog Number AP309P) 1:2000 diluted in PBST containing 1% BSA was added, 100 μL per well, incubated at 25° C. for 1 hour. The plate was washed five times with PBST. 100 μL/well of colorimetric substrate TMB was added and incubated at room temperature for 10 minutes. Color development was terminated by adding 100 μL/well of 1 M H₂SO₄. The absorbance at 450 nm was read on a microplate reader.

T1 sequence (Q15116 25-167 limits assumed): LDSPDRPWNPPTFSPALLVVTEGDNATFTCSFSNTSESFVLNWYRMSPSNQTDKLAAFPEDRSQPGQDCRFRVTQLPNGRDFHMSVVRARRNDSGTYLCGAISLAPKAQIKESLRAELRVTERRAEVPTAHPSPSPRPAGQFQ

- EC50: 0.031 nM
B1: anti-human PD-1 chimeric monoclonal antibody (antibody, human IgG4 S228P, kappa, V domains shown)
VH: EVQLQESGGGLVKPGGSLKLSCAASGFTFSSYGMSWVRQTPEKRLEWVASISGGGRYTYYPDSMKGRFTISRDNAKNNLHLQMSSLRSEDTALYYCVYEYFYTMDYWGQGTSVTVSS
VL: DIVLTQSPATLSVTPGDSVSLSCRANQSISNNLHWYQQRSHESPRLLIRFASQSISGIPSRFSGSGSGTDFTLSINSVETEDFGMYFCQQSDNWPLTFGAGTKLEIKR
notes: expressed in 293F cells; also called Anti-human PD-1 Chimeric Antibody; chimeric anti-human PD-1 monoclonal antibody

From patent US20190367615A1 (BEIJING HANMI PHARM, published 2019)
